Assay results reported in the supplement of paper PMC9112550, “Optimization of the antimicrobial peptide Bac7 by deep mutational scanning” (BMC Biology, 2022).

tested on: Escherichia coli TOP10; experiment: shrunken log2 fold change of peptide-encoding DNA abundance (4.5 h post-induction vs induction); higher = less antimicrobial activity (less host growth inhibition); details: time post-induction: 4.5 h; library: site-saturation at positions 5, 18, 19, 20
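Also: peptides expressed intracellularly from a pBAD plasmid library in pooled LB shake-flask culture, induced with 0.3% L-arabinose, DNA abundance read by NGS, three biological replicates, DESeq2 with apeglm shrinkage.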

Sequence	shrunken log2 fold change
RRIRTRPPRLPRPRPRPRCGPRP	0.172
RRIRERPPRLPRPRPRPGCRPRP	0.0043
RRIRVRPPRLPRPRPRPEMMPRP	0.0629
RRIRYRPPRLPRPRPRPGGAPRP	0.359
RRIRMRPPRLPRPRPRPVWEPRP	0.4
RRIRERPPRLPRPRPRPFFCPRP	-0.0755
RRIRNRPPRLPRPRPRPKKYPRP	-0.69
RRIRYRPPRLPRPRPRPFAVPRP	-1.09
RRIRHRPPRLPRPRPRPNEIPRP	-0.21
RRIRFRPPRLPRPRPRPKNHPRP	-0.347
RRIRMRPPRLPRPRPRPEGDPRP	4.15
RRIRRRPPRLPRPRPRPYREPRP	-0.344
RRIRTRPPRLPRPRPRPSETPRP	0.11
RRIRWRPPRLPRPRPRPFFWPRP	1.17
RRIRLRPPRLPRPRPRPIWVPRP	-0.0362
RRIRWRPPRLPRPRPRPTVSPRP	-0.156
RRIRWRPPRLPRPRPRPGFHPRP	-0.0866
RRIRPRPPRLPRPRPRPDLCPRP	-0.0739
RRIRLRPPRLPRPRPRPFYVPRP	-0.5
RRIRTRPPRLPRPRPRPRGRPRP	0.593
RRIRGRPPRLPRPRPRPDCPPRP	0.22
RRIRVRPPRLPRPRPRPTETPRP	0.0324
RRIRRRPPRLPRPRPRPNVHPRP	-0.203
RRIRDRPPRLPRPRPRPFCKPRP	-0.164
RRIRNRPPRLPRPRPRPNPMPRP	-0.0603

Sequence	shrunken log2 fold change
RRIRIRPPRLPRPRPRPLHGPRP	-0.308
RRIRDRPPRLPRPRPRPTFEPRP	0.527
RRIRLRPPRLPRPRPRPMVNPRP	-0.0358
RRIRQRPPRLPRPRPRPVKIPRP	0.352
RRIRRRPPRLPRPRPRPRSDPRP	0.323
RRIRPRPPRLPRPRPRPGCEPRP	0.113
RRIRNRPPRLPRPRPRPFGTPRP	-0.214
RRIRARPPRLPRPRPRPMLWPRP	0.183
RRIRVRPPRLPRPRPRPKKKPRP	-0.356
RRIRTRPPRLPRPRPRPHEVPRP	-0.00804
RRIRMRPPRLPRPRPRPKHWPRP	0.91
RRIRARPPRLPRPRPRPSYRPRP	-0.228
RRIRLRPPRLPRPRPRPWSRPRP	-0.264
RRIRGRPPRLPRPRPRPYVFPRP	-0.141
RRIRLRPPRLPRPRPRPRICPRP	-0.237
RRIRRRPPRLPRPRPRPQVGPRP	0.149
RRIRYRPPRLPRPRPRPASYPRP	-0.156
RRIRARPPRLPRPRPRPPTYPRP	0.0408
RRIRYRPPRLPRPRPRPTLLPRP	-0.703
RRIRDRPPRLPRPRPRPCGNPRP	0.104
RRIRGRPPRLPRPRPRPSQWPRP	0.101
RRIRFRPPRLPRPRPRPMYRPRP	-0.29
RRIRMRPPRLPRPRPRPYVHPRP	-0.0522
RRIRHRPPRLPRPRPRPRGTPRP	-0.164
RRIRHRPPRLPRPRPRPWEKPRP	-0.359

Sequence	shrunken log2 fold change
RRIRSRPPRLPRPRPRPTIYPRP	-0.405
RRIRTRPPRLPRPRPRPNPVPRP	-0.0168
RRIRERPPRLPRPRPRPKQDPRP	-0.252
RRIRGRPPRLPRPRPRPYGGPRP	-0.26
RRIRDRPPRLPRPRPRPGYMPRP	-0.649
RRIRCRPPRLPRPRPRPKKFPRP	-0.00227
RRIRHRPPRLPRPRPRPPKDPRP	0.105
RRIRRRPPRLPRPRPRPAHYPRP	0.445
RRIRLRPPRLPRPRPRPAQKPRP	0.37
RRIRTRPPRLPRPRPRPTWRPRP	0.233
RRIRTRPPRLPRPRPRPCCGPRP	0.635
RRIRLRPPRLPRPRPRPFEAPRP	-0.256
RRIRNRPPRLPRPRPRPHEPPRP	0.247
RRIRERPPRLPRPRPRPSEIPRP	-0.16
RRIRKRPPRLPRPRPRPPHMPRP	0.208
RRIRWRPPRLPRPRPRPFWDPRP	0.00494
RRIRPRPPRLPRPRPRPHQLPRP	0.0761
RRIRRRPPRLPRPRPRPECCPRP	0.566
RRIRNRPPRLPRPRPRPEIDPRP	0.166
RRIRTRPPRLPRPRPRPPEAPRP	0.205
RRIRWRPPRLPRPRPRPMLMPRP	-0.0339
RRIRRRPPRLPRPRPRPYPHPRP	-0.181
RRIRNRPPRLPRPRPRPSYTPRP	-1.13
RRIRVRPPRLPRPRPRPTKYPRP	-0.523
RRIRLRPPRLPRPRPRPGKCPRP	-0.073
